Measurements as given in publication PMC9023281, “Polymerase theta-helicase promotes end joining by stripping single-stranded DNA-binding proteins and bridging DNA ends”.

B1: dT50 (Poly-T50) (ssDNA)
DNA: TTTTTTTTTTTTTTTTTTTTTTTTTTTTTTTTTTTTTTTTTTTTTTTTTT
B2: Noncomp-647N (ssDNA)
DNA: TCCTCTTTTTCTTTTTTTCTTTTCTTCC

Legend:
[1] = target: T1, Polθ-h (Polθ helicase domain) (UniProt O75417 1-894); experiment: EMSA; no PARP-1 modification; hyperbolic fit; Imaging Buffer: 40 mM Tris-HCl pH 8.0, 50 mM NaCl, 2 mM MgCl2, 1 mM DTT, 0.2 mg/ml BSA, 1 mM ATP; EMSA at room temperature, single-molecule at 37 C; PARP-1 tethering without BSA; displacement EMSA in 30 mM HEPES pH 8.0, 50 mM NaCl, 1.5 mM MgCl2, 1 mM DTT; details: protein: recombinant; tags: pET19 N-terminal 6xHis-TwinStrep-SUMO; chain copies: 4; label: 5'-32P in EMSA; unlabeled as challenge in tethering assay
T1 sequence (O75417 1-894): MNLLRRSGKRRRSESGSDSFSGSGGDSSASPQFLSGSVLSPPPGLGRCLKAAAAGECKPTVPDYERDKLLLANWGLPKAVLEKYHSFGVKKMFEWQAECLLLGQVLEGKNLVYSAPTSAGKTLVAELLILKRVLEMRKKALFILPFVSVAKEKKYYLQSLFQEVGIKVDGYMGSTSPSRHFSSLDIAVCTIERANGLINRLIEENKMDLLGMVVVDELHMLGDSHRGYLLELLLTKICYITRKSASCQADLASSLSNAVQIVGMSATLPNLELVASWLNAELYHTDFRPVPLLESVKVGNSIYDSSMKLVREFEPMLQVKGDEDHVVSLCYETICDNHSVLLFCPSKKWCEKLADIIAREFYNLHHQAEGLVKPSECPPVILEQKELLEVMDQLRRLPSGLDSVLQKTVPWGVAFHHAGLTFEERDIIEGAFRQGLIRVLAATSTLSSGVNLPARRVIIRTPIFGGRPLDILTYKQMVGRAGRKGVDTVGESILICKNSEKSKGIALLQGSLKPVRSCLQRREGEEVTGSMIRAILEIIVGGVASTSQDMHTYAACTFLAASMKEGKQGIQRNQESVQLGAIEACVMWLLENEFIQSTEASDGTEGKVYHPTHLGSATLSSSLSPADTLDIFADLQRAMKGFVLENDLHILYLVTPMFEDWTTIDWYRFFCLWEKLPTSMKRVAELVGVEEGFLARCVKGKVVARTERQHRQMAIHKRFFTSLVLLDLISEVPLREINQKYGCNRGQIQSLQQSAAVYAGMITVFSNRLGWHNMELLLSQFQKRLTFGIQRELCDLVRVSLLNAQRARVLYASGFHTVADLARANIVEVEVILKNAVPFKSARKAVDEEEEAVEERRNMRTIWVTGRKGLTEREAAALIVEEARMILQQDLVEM

[2] = target: T1, Polθ-h (Polθ helicase domain); experiment: single-molecule ssDNA curtain oligo capture; captured in trans by Polθ-h on RPA-GFP-coated ssDNA; no capture without Polθ-h; Imaging Buffer: 40 mM Tris-HCl pH 8.0, 50 mM NaCl, 2 mM MgCl2, 1 mM DTT, 0.2 mg/ml BSA, 1 mM ATP; EMSA at room temperature, single-molecule at 37 C; PARP-1 tethering without BSA; displacement EMSA in 30 mM HEPES pH 8.0, 50 mM NaCl, 1.5 mM MgCl2, 1 mM DTT; details: protein: recombinant; tags: pET19 N-terminal 6xHis-TwinStrep-SUMO; chain copies: 4; label: 5'-Atto647N

| Binder | Kd [1] [nM] | binding result [2] |
| --- | --- | --- |
| B1 | 39 ± 12 |  |
| B2 |  | binds |
